Measured values as given in article PMC7990223.

What was measured:
human ACE2 (human) = human ACE2 (human) (UniProt Q9BYF1); assay: flow cytometry on cells
mouse ACE2 (mouse) = mouse ACE2 (mouse) (UniProt Q8R0I0); assay: flow cytometry on cells
mouse ACE2 (mouse), sequence (Q8R0I0 18-805): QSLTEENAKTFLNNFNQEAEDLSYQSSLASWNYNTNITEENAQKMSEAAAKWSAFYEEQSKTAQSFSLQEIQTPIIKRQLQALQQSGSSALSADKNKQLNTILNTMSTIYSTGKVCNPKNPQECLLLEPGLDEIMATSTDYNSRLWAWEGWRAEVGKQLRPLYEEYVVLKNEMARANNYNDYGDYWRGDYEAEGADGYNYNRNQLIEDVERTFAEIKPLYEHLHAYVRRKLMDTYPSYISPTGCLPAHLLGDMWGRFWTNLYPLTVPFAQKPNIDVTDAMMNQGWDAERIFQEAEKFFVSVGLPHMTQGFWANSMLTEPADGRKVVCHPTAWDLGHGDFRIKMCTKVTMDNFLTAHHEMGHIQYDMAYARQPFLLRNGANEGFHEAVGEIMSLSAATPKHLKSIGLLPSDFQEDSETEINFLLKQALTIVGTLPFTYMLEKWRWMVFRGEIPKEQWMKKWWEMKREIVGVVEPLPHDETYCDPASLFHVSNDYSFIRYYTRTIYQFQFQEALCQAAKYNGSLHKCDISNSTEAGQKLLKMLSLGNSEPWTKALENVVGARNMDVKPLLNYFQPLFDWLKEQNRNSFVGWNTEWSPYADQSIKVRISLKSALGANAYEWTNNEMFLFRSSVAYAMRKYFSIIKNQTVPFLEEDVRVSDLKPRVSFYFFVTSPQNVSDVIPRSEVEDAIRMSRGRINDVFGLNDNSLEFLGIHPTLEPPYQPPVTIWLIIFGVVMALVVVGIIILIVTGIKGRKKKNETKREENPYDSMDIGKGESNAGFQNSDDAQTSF

human ACE2 (human), sequence (Q9BYF1 18-805): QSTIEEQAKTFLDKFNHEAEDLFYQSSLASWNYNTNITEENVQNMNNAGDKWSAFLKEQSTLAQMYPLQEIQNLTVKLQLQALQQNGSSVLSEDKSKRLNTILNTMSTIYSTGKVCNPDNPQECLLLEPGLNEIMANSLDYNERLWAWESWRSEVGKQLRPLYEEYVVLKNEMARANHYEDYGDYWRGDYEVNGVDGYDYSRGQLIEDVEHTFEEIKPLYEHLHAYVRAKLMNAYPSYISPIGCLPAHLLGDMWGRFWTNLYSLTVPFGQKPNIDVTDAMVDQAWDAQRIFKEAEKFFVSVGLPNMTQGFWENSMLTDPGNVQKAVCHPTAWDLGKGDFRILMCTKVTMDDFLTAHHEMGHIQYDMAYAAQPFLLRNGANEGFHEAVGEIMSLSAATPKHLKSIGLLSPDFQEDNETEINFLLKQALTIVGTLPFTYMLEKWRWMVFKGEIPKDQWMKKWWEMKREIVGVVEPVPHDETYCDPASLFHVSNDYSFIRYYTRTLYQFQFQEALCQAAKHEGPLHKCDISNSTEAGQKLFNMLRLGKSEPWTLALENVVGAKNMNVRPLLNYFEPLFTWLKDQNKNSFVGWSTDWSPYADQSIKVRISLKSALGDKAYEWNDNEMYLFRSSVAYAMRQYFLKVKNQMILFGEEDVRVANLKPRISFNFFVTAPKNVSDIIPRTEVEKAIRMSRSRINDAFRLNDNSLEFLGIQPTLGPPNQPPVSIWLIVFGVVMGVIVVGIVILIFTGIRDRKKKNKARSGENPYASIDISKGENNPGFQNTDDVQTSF

S1 domain of the SARS-CoV spike protein C-terminally fused with Fc (from UniProt P59594 14-667) (Fc fusion)
percent of ACE2-expressing (zsGreen1+) cells positive for S1-Fc (human ACE2 (human)): 64% | percent of ACE2-expressing (zsGreen1+) cells positive for S1-Fc (mouse ACE2 (mouse)): 40.4%
